Measured values taken from patent US8034904B2, “Anti-IGF-I receptor antibody” (Immunogen Inc., priority 2002, dated 2011).

How the values were obtained:
[1] = biological target: T1, IGF-I receptor on MCF-7 cells (Homo sapiens, UniProt P08069); experiment: Inhibition of binding of biotinylated IGF-I to MCF-7 cells; assay type: cell-based; details: 5 μg/mL antibody, 2 h; 50 ng/mL biotinylated IGF-I, 20 min, 37° C.
T1 construct: human breast cancer MCF-7 cells, which expressed IGF-I receptor; endogenous in cells; host or cells: MCF-7 human breast cancer cells
Procedure: The binding of IGF-I to human breast cancer MCF-7 cells was inhibited by EM164 antibody (FIG. 3). […] The cells were then washed twice with serum-free medium to remove unbound biotin-IGF-I, and were then lysed in 50 mM HEPES, pH 7.4, containing 1% NP-40 and protease inhibitors. An Immulon-2HB ELISA plate was coated with a mouse monoclonal anti-IGF-I receptor beta chain antibody and was used to capture the IGF-I receptor and bound biotin-IGF-I from the lysate. […] The wells were washed, incubated with streptavidin-horseradish peroxidase conjugate, washed again, and then detected using ABTS/H2O2 substrate.

[2] = tested on: IGF-I receptor from cos-7 cells; experiment: Immunoprecipitation of IGF-I receptor from cos-7 cells; assay type: binding; details: cos-7 cells (African green monkey)
Excerpt: (§1) A Western blot of the EM164 antibody immunoprecipitate was detected using a rabbit polyclonal anti-IGF-I receptor beta chain (C-terminus) antibody (Santa Cruz Biotechnology) and a goat-anti-rabbit-IgG-antibody-horseradish peroxidase conjugate, followed by washes and enhanced chemiluminescence (ECL) detection.

[3] = tested on: RD (rhabdomyocarcoma) cells; experiment: Growth and survival of RD cells (MTT assay); assay type: cell-based, human
Procedure: (§2) Several human tumor cell lines were tested in serum-free conditions for their growth and survival response to IGF-I. These cell lines were treated with EM164 antibody in the presence of IGF-I, IGF-II, or serum, and their growth and survival responses were measured using an MTT assay after 2-4 days. Approximately 1500 cells were plated in a 96-well plate in regular medium with serum, which was replaced with serum-free medium the following day (either serum-free RPMI medium supplemented with transferrin and BSA, or phenol-red free medium as specified by Dufourny, B. et al., 1997, J. Biol. Chem., 272, 31163-31171). After one day of growth in serum-free medium, the cells were incubated with about 75 μL of 10 μg/mL antibody for 30 min.-3 h, followed by the addition of 25 μL of IGF-I (or IGF-II or serum) solution to obtain a final concentration of 10 ng/mL IGF-I, or 20 ng/mL IGF-II, or 0.04-10% serum. In some experiments, the cells were stimulated first with IGF-I for 15 min before the addition of EM164 antibody, or both IGF-I and EM164 antibody were added together. The cells were then allowed to grow for another 2-3 days. A solution of MTT (3-(4,5)-dimethylthiazol-2-yl)-2,5-diphenyltetrazolium bromide; 25 μL of a 5 mg/mL solution in PBS) was then added and the cells were returned to the incubator for 2-3 h. The medium was then removed and replaced by 100 μL DMSO, mixed, and the absorbance of the plate was measured at 545 nm.

[4] = biological target: T1, IGF-I receptor on MCF-7 cells; experiment: IGF-I displacement assay in MCF-7 cells; assay type: cell-based
Procedure: (§3) (or at 4° C.) for 1 to 2 h. […] (or at 4° C.) for 30 min to 4 h. Cells were then washed with PBS and lysed in lysis buffer containing 1% NP-40 at 4° C.

[5] = tested on: A-673 human rhabdomyosarcoma/Ewing's sarcoma xenografts; experiment: A-673 xenograft in mice; details: mouse, in vivo
[6] = biological target: T2, IGF-I receptor of 3T3 cells (Mus musculus, UniProt Q60751); experiment: Immunoprecipitation of IGF-I receptor from 3T3 cells; assay type: binding
T2 construct: endogenous in cells; host or cells: 3T3 cells (mouse)
T2 sequence (Q60751 31-1373): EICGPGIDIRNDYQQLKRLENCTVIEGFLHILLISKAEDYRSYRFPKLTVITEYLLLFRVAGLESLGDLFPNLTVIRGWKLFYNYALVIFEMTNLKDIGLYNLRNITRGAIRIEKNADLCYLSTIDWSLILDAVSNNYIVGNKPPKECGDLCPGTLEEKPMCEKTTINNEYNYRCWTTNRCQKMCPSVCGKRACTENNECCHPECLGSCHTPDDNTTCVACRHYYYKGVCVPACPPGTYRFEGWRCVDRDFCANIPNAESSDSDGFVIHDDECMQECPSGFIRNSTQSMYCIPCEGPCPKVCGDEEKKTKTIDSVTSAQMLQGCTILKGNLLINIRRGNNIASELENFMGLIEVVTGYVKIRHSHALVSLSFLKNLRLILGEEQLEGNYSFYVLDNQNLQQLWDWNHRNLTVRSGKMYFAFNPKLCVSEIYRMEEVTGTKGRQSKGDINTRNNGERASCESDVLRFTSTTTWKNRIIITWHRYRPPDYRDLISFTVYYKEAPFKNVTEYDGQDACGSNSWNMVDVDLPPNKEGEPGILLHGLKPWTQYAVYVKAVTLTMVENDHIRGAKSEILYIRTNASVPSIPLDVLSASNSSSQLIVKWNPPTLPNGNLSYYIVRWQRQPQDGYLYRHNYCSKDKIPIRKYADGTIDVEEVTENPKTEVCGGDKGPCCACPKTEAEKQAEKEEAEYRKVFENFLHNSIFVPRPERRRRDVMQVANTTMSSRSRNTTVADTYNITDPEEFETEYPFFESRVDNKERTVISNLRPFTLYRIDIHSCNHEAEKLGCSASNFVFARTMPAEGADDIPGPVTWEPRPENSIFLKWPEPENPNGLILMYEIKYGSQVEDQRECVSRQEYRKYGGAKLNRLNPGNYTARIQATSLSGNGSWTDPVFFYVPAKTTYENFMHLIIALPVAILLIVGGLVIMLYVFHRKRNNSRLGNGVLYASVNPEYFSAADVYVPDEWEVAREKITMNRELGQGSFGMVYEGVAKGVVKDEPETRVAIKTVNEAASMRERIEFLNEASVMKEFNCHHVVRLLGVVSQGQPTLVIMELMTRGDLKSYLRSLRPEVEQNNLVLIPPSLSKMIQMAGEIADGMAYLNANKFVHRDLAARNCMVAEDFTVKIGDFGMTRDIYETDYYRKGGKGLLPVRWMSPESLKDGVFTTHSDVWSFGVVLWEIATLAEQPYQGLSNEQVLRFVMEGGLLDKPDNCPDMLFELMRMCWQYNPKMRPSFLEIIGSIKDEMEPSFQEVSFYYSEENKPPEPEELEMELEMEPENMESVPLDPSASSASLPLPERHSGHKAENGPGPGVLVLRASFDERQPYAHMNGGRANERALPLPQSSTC
Excerpt: as §1

MCF-7 (breast) cells = experiment: Growth and survival of MCF-7 cells (MTT assay); assay type: cell-based, human
Procedure: as §2

[7] = tested on: truncated IGF-I receptor alpha chain construct (residues 1-468 fused to 704-719, myc tag); experiment: Binding to truncated IGF-I receptor alpha chain construct; parameters: species or system human
Excerpt: The binding domain of EM164 antibody was further characterized using a truncated alpha chain construct, which comprised the cysteine rich domain flanked by L1 and L2 domains (residues 1-468) fused with the 16-mer-C-terminus piece (residues 704-719) and which was terminated by a C-terminus epitope tag. This smaller IGF-I receptor, which lacked residues 469-703, has been reported to bind IGF-I, although less tightly compared to the native full-length IGF-I receptor (Molina, L. et al., 2000, FEBS Letters, 467, 226-230; Kristensen, C. et al., 1999, J. Biol. Chem., 274, 37251-37356). Thus, a truncated IGF-I receptor alpha chain construct was prepared comprising residues 1-468 fused to the C-terminus piece that is residues 704-719 and flanked by a C-terminus myc epitope tag. A stable cell line which expressed this construct, and which also expresses the construct transiently in human embryonic kidney 293T cells, was constructed.

Akt and Erk1/2 = experiment: IGF-I receptor signaling in MCF-7 cells (Western blots, phospho-Akt and phospho-Erk1/2); assay type: cell-based, human
[8] = biological target: T3, IGF-I receptor on NCI-H838 cells (Homo sapiens, UniProt P08069); experiment: IGF-I displacement in NCI-H838 lung cancer cells; assay type: cell-based; details: 4° C., 2 h
T3 construct: endogenous in cells; host or cells: NCI-H838 lung cancer cells
Procedure: as §3

[9] = biological target: T4, IGF-I receptor of MCF-7 cells (Homo sapiens, UniProt P08069); experiment: Immunoprecipitation of IGF-I receptor from MCF-7 lysate; assay type: binding; details: MCF-7 lysate (human)
T4 construct: human breast cancer MCF-7 cells, which expressed IGF-I receptor; endogenous in cells; host or cells: MCF-7 human breast cancer cells
Excerpt: as §1

NCI-H838 (lung) cells = experiment: Growth and survival of NCI-H838 cells (MTT assay); assay type: cell-based, human
Procedure: as §2

B1: EM164: murine anti-IGF-I receptor monoclonal antibody, IgG1 with kappa light chain, hybridoma ATCC PTA-4457; heavy SEQ ID NO:7, light SEQ ID NO:8 (antibody)
heavy: QVQLQQSGAELVKPGASVKLSCKASGYTFTSYWMHWVKQRPGQGLEWIGEINPSNGRTNYNEKFKRKATLTVDKSSSTAYMQLSSLTSEDSAVYYFARGRPDYYGSSKWYFDVWGAGTTVTVSS
light: DVLMTQTPLSLPVSLGDQASISCRSSQSIVHSNVNTYLEWYLQKPGQSPKLLIYKVSNRFSGVPDRFSGSGSGTDFTLRISRVEAEDLGIYYCFQGSHVPPTFGGGTKLEIKR
modifications: antibody heavy chain; antibody light chain
inhibition of IGF-I binding to MCF-7 cells [1]: essentially quantitative | binding to IGF-I receptor (immunoprecipitation) [2]: also bound | Inhibition by EM164 antibody of IGF-I-stimulated growth in serum-free medium ([3]; 5-10 μg/mL EM164, 10 ng/mL IGF-I): 85-100% | % Inhibition by EM164 antibody of Growth/survival of cells in 1.25-10% serum ([3]; 5-10 μg/mL EM164, MTT or colony formation assay): Yes | displacement of pre-bound biotinylated IGF-I ([4]; 4° C., 2 h): about 50% | displacement of pre-bound biotinylated IGF-I ([4]; 37° C., within 30 min): 90% | displacement of pre-bound biotinylated IGF-I ([4]; 37° C., within 4 h): ~100% | growth of established A-673 xenografts [5]: significant growth delay | binding to IGF-I receptor (immunoprecipitation) [6]: did not bind | inhibition of growth and survival of MCF-7 cells over a range of serum concentrations (MCF-7 (breast) cells; 0.04-10% serum, FIG. 8): equally effective | IGF-1- or serum-stimulated growth and survival of MCF-7 cells (MCF-7 (breast) cells; FIGS. 7 and 8): strongly inhibited | % Inhibition by EM164 antibody of Growth/survival of cells in 1.25-10% serum (MCF-7 (breast) cells; MCF-7 (breast), 5-10 μg/mL EM164): 85% | Inhibition by EM164 antibody of IGF-I-stimulated growth in serum-free medium (MCF-7 (breast) cells; MCF-7 (breast), 5-10 μg/mL EM164, 10 ng/mL IGF-I): 100% | inhibition of serum-stimulated growth (MCF-7 (breast) cells; MCF-7 cells, in the presence of serum): greater than 80% | IGF-II-stimulated growth and survival of MCF-7 cells (MCF-7 (breast) cells; separate experiment): strongly inhibited | binding to truncated IGF-I receptor alpha chain construct [7]: strong binding | intracellular IGF-I receptor signaling (Akt and Erk1/2): almost completely inhibited | activation of Akt and Erk1/2 (Akt and Erk1/2; IGF-I stimulated): inhibited in a dose-dependent manner | decrease in the bound biotin-IGF-I [8]: 80% | immunoprecipitation of IGF-I receptor [9]: can be used for immunoprecipitation of IGF-I receptor | % Inhibition by EM164 antibody of Growth/survival of cells in 1.25-10% serum (NCI-H838 (lung) cells; NCI-H838 (lung), 5-10 μg/mL EM164): 85-90% | Inhibition by EM164 antibody of IGF-I-stimulated growth in serum-free medium (NCI-H838 (lung) cells; NCI-H838 (lung), 5-10 μg/mL EM164, 10 ng/mL IGF-I): 100% | inhibition of serum-stimulated growth (NCI-H838 (lung) cells; NCI-H838 cells): greater than 80% | IGF-1- and serum-stimulated growth and survival of NCI-H838 (NCI-H838 (lung) cells; compared to a control anti-B4 antibody, FIG. 9): strongly inhibited
